Measured values from paper doi:10.1101/2020.07.06.190884.

How the values were obtained:
[1] = molecular target: His-tagged PrgU (Enterococcus faecalis (plasmid pCF10)); experiment: GEMMA
[2] = molecular target: His-tagged PrgU (Enterococcus faecalis (plasmid pCF10)); experiment: SEC-MALS

Substance: His-tagged PrgU (natural protein)
- stoichiometry N [1]: 2
- stoichiometry N [2]: 2
